T1: NfL-His重组蛋白 (神经丝轻链蛋白, Neurofilament light chain) (Homo sapiens (Human), UniProt P07196 1-543)
T1 construct: Recombinant, expressed in 293F cells, C-terminal His tag; used as immunogen, sorting antigen and screening antigen; also called NfL-His蛋白
T1 sequence: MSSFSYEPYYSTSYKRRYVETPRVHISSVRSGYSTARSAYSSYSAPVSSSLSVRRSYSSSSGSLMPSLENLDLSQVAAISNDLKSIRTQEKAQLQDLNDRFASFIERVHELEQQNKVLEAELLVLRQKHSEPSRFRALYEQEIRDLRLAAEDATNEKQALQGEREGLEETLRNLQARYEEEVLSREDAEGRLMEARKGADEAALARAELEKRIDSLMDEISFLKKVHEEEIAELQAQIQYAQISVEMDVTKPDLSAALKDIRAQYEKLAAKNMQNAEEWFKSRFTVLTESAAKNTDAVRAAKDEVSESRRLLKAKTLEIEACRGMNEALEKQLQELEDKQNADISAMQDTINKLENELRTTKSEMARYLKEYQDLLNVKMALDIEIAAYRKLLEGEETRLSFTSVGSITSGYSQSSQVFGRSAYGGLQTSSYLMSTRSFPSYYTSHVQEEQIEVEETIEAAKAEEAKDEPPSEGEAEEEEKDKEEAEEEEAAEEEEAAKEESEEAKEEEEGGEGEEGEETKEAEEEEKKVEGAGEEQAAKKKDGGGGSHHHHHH


Legend:
[1] = molecular target: T1, NfL-His重组蛋白 (神经丝轻链蛋白, Neurofilament …); assay: sandwich ELISA, fixed antibody of the pair
[2] = molecular target: T1, NfL-His重组蛋白 (神经丝轻链蛋白, Neurofilament …); assay: sandwich chemiluminescence, NfL at 10000pg/mL, Rabbit anti-NfL mAb on beads as capture, acridinium ester labelled antibody as detection

| binding result [1] | binding result [2] | Binder |
| --- | --- | --- |
| binds |  | Rabbit anti-NfL mAb (antibody, V domains shown, Rabbit monoclonal antibody developed earlier by the applicant; Used as the fixed capture antibody (coupled to magnetic beads in the chemiluminescence assay); also called 包被抗体; 配对抗体) VH: QSVEESGGRLVTPGTPLTLTCTASGIDLSNYAMNWVHQAPGKGLEWIAIIYASGSTYYTTWAKGRFTISKTSSTTVDLKITSPTTEDTATYFCARALSMTNVYTFNIWGPGTLVTVSS VL: DVVMTQTPASVSEPVGGTVTIKCQASQNIYNNLAWYQQKPGQPPKLLIYKASTLASGVSSRFKGSGSGTEFTLTISDLECADAATYYCQCTYGSSYVAFGGGTEVVVK |
|  | binds | Anti-NfL-rRmab-1 (antibody, V domains shown, Labelled with acridinium ester as the detection antibody in the chemiluminescence assay; also called NfL特异性抗体; 优选抗体) VH: QSVEESGGRLVTPGTPLTLTCTASGFSLSIHDMSWVRQAPGKGLEWIGLISSNNNTYYASWAKGRFTISKTSTTVDLKITSPTTEDTATYFCARGGFSTDLWGPGTPVTVSS VL: DVVMTQTPASVSEPVGGTVTIKCQASQSIYTYLSWYQQKPGQPPKLLIYGASNLASGVSSRFKGSGSGTDYTLTISGVQCDDAATYYCQCTYFSSSYVGGFGGGTEVVVK |
